Residue numbers refer to the chain shown, from its start.
T1: human AXL on the surface of tumor cells (human, UniProt P30530 26-894)
T1 construct: whole, on cells; endogenous protein of human tumor cell lines; the cell line is named under assay or readout; also called AXL on the cell surface
T1 sequence (looked up): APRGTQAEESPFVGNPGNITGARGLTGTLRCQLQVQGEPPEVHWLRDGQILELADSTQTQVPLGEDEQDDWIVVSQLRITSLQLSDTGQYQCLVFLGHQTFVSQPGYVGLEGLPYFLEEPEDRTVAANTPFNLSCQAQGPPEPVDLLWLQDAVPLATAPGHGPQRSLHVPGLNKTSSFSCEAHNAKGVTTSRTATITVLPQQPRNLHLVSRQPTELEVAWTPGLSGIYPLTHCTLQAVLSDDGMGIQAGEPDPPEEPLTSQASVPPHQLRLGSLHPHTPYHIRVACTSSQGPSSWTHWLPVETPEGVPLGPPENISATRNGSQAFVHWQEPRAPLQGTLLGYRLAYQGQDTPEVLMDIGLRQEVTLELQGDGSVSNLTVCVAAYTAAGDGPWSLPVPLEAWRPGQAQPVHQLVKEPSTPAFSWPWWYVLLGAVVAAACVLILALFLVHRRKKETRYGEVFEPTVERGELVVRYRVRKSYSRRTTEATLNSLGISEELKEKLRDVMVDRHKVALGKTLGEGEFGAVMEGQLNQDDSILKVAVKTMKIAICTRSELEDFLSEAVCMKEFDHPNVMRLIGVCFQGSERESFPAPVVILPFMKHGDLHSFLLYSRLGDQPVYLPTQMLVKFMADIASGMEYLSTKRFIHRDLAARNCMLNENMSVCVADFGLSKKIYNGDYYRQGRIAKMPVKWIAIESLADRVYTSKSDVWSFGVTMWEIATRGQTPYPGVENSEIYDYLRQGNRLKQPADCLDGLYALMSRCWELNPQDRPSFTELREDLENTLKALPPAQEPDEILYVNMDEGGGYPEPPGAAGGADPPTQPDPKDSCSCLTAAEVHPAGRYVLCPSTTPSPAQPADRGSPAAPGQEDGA

T2: extracellular domain of human AXL protein (AXL-ECD) (human, UniProt P30530 31-449)
T2 construct: expressed in HEK293T cells; coated on the ELISA plate; also called AXL-ECD protein; human AXL extracellular domain protein
T2 sequence: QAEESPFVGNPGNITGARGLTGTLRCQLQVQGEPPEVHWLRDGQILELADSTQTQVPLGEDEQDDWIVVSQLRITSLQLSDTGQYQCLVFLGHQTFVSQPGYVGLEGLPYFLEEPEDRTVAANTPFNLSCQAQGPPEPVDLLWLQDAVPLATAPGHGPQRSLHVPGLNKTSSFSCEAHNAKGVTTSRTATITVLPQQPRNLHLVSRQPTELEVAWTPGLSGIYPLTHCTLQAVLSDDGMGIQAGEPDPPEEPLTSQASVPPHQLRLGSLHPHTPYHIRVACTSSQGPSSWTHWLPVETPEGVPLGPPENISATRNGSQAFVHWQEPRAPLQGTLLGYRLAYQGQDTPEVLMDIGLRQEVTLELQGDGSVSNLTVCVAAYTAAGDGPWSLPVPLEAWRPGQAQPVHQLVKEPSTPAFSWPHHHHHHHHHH

B1: Hu002-5 (antibody, V domains shown)
VH: QVQLVQSGAEVKKPGASVKVSCKASGYPFTDFYINWVRQAPGQGLEWMGWIYPGSGNTKYNEKFKGRVTLTVDTSISTAYMELSRLRSDDTAVYYCARSTGFFDYWGQGTLVTVSS
VL: EIVLTQSPATLSLSPGERATLSCSASSSIGYMYWYQQKPGQAPRLLIYLTSNLASGIPARFSGSGSGTDYTLTISSLEPEDFAVYYCQQWSSNPPTFGQGTKLEIK
notes: humanized from mAb002c; also called Hu002c-5
B2: Hu002-3 (antibody, V domains shown)
VH: B1 VH with R38K, M48I
VL: B1 VL with Y70F
notes: humanized from mAb002c; also called Hu002c-3
B3: Hu002-6 (antibody, V domains shown)
VH: B1 VH with R38K, M48I
VL: B1 VL
notes: humanized from mAb002c; also called Hu002c-6
B4: Hu002-7 (antibody, V domains shown)
VH: B1 VH with L70M, V72R
VL: B1 VL with A42S, L45S
notes: humanized from mAb002c; also called Hu002c-7
B5: Hu002-8 (antibody, V domains shown)
VH: B1 VH
VL: B1 VL with A42S, L45S
notes: humanized from mAb002c; also called Hu002c-8
B6: Hu002-9 (antibody, V domains shown)
VH: B1 VH with R38K, M48I
VL: B1 VL with A42S, L45S
notes: humanized from mAb002c; also called Hu002c-9
B7: Hu002-10 (antibody, V domains shown)
VH: B1 VH with L70M, V72R
VL: B1 VL with E1Q, A42S, L45S
notes: humanized from mAb002c; also called Hu002c-10
B8: Hu002-11 (antibody, V domains shown)
VH: B1 VH
VL: B1 VL with E1Q, A42S, L45S
notes: humanized from mAb002c; also called Hu002c-11
B9: Hu002-12 (antibody, V domains shown)
VH: B1 VH with R38K, M48I
VL: B1 VL with E1Q, A42S, L45S
notes: humanized from mAb002c; also called Hu002c-12
B10: Hu002-17 (antibody, V domains shown)
VH: B1 VH
VL: EIVLTQSPDFQSVTPKEKVTITCSASSSIGYMYWYQQKPDQSPKLLIYLTSNLASGVPSRFSGSGSGTDYTLTINSLEAEDAATYYCQQWSSNPPTFGQGTKLEIK
notes: humanized from mAb002c; also called Hu002c-17
B11: Hu002-13 (antibody, V domains shown)
VH: B1 VH with L70M, V72R
VL: B10 VL with Y48K, Y70F
notes: humanized from mAb002c; also called Hu002c-13
B12: Hu002-14 (antibody, V domains shown)
VH: B1 VH
VL: B10 VL with Y48K, Y70F
notes: humanized from mAb002c; also called Hu002c-14
B13: Hu002-15 (antibody, V domains shown)
VH: B1 VH with R38K, M48I
VL: B10 VL with Y48K, Y70F
notes: humanized from mAb002c; also called Hu002c-15
B14: Hu002-16 (antibody, V domains shown)
VH: B1 VH with L70M, V72R
VL: B10 VL
notes: humanized from mAb002c; also called Hu002c-16
B15: Hu002-18 (antibody, V domains shown)
VH: B1 VH with R38K, M48I
VL: B10 VL
notes: humanized from mAb002c; also called Hu002c-18
B16: Hu002-19 (antibody, V domains shown)
VH: B1 VH with L70M, V72R
VL: B10 VL with L45S
notes: humanized from mAb002c; also called Hu002c-19
B17: Hu002-20 (antibody, V domains shown)
VH: B1 VH
VL: B10 VL with L45S
notes: humanized from mAb002c; also called Hu002c-20
B18: Hu002-21 (antibody, V domains shown)
VH: B1 VH with R38K, M48I
VL: B10 VL with L45S
notes: humanized from mAb002c; also called Hu002c-21
B19: Hu002-22 (antibody, V domains shown)
VH: B1 VH with L70M, V72R
VL: B10 VL with E1Q, L45S
notes: humanized from mAb002c; also called Hu002c-22
B20: Hu002-23 (antibody, V domains shown)
VH: B1 VH
VL: B10 VL with E1Q, L45S
notes: humanized from mAb002c; also called Hu002c-23
B21: Hu002-24 (antibody, V domains shown)
VH: B1 VH with R38K, M48I
VL: B10 VL with E1Q, L45S
notes: humanized from mAb002c; also called Hu002c-24

What was measured:
[1] = molecular target: T1, human AXL on the surface of tumor cells; assay: FACS on LCLC-103H cells
Experimental: (§1) Then the obtained solutions were incubated at 4° C. for 1 h, the cells were washed twice with PBS to remove unbound primary antibody, and then the target cells were incubated with 200 μL PE-labeled secondary antibody (2 μg/mL) at 4° C. for 30 min. The cells were washed twice with PBS to remove unbound secondary antibody. Finally, the cells were resuspended in 200 μL PBS, and the binding affinity of the test antibody to AXL on the cell surface was determined by a flow cytometer (FACSCalibur)
The experimental method was referred to Example 8.

[2] = molecular target: T1, human AXL on the surface of tumor cells; assay: FACS on MDA-MB-231 cells
Experimental: as §1
24 humanized antibodies in Table-6 were diluted by gradient, and their affinities to AXL, on the surface of MDA-MB-231 cells were determined by flow cytometer. The experimental method was referred to Example 8.

[3] = molecular target: T2, extracellular domain of human AXL …; assay: ELISA, plate-coated AXL-ECD
Experimental: The extracellular domain of AXL protein (AXL-ECD) was diluted to […] with the coating solution, and coated onto ELISA plate with 100 μL/well at 4° C. overnight. The excess antigen was washed off. The plate was blocked with 1% BSA at room temperature for 2 h, then each monoclonal antibody in a 3-fold dilution was added at 100 µL/well. The plate was incubated at room temperature for 1 h; the unbound antibody was washed off, and appropriate concentration of anti-mouse secondary antibody labeled with horseradish peroxidase was added at 100 µL/well. The plate was incubated at room temperature for 0.5 h. The unbound secondary antibody was washed off. TMB Substrate was added and reacted for about 15 minutes. 1N HCL was added at 50 µL/well to stop the color reaction. Then the absorbance was measured at 450 nm and the obtained data was analyzed.
24 humanized antibodies in Table-6 were diluted by gradient, and their affinity to AXL-ECD protein was determined by ELISA. The experimental method was referred to Example 4.

| EC50 [1] | EC50 [2] | Highest MFI value (FACSCalibur) [2] | EC50 [3] | TOP (OD450) [3] | Binder |
| --- | --- | --- | --- | --- | --- |
| 0.36 nM | 0.114 nM | 275 MFI | 0.05 nM | 3.59 OD450 | B1 |
|  | 0.108 nM | 277 MFI | 0.048 nM | 3.6 OD450 | B2 |
|  | 0.101 nM | 271 MFI | 0.052 nM | 3.63 OD450 | B3 |
|  | 0.129 nM | 275 MFI | 0.058 nM | 3.59 OD450 | B4 |
|  | 0.138 nM | 270 MFI | 0.049 nM | 3.59 OD450 | B5 |
|  | 0.121 nM | 268 MFI | 0.067 nM | 3.62 OD450 | B6 |
|  | 0.118 nM | 273 MFI | 0.068 nM | 3.58 OD450 | B7 |
|  | 0.123 nM | 271 MFI | 0.043 nM | 3.74 OD450 | B8 |
|  | 0.116 nM | 261 MFI | 0.045 nM | 3.73 OD450 | B9 |
|  | 0.107 nM | 269 MFI | 0.045 nM | 3.71 OD450 | B10 |
|  | 0.073 nM | 262 MFI | 0.047 nM | 3.73 OD450 | B11 |
|  | 0.094 nM | 264 MFI | 0.052 nM | 3.72 OD450 | B12 |
|  | 0.099 nM | 268 MFI | 0.05 nM | 3.72 OD450 | B13 |
|  | 0.082 nM | 282 MFI | 0.047 nM | 3.76 OD450 | B14 |
|  | 0.111 nM | 277 MFI | 0.055 nM | 3.71 OD450 | B15 |
|  | 0.121 nM | 278 MFI | 0.059 nM | 3.73 OD450 | B16 |
|  | 0.099 nM | 277 MFI | 0.054 nM | 3.71 OD450 | B17 |
|  | 0.132 nM | 273 MFI | 0.046 nM | 3.71 OD450 | B18 |
|  | 0.134 nM | 276 MFI | 0.059 nM | 3.67 OD450 | B19 |
|  | 0.098 nM | 276 MFI | 0.057 nM | 3.69 OD450 | B20 |
|  | 0.098 nM | 262 MFI | 0.051 nM | 3.65 OD450 | B21 |

Source: US20210214447A1 (SHANGHAI INSTITUTE OF MATERIA MEDICA CHINESE ACADEMY OF …, published 2021)
